Measurements reported in patent publication US20220017601A1 (JIANGSU HENGRUI MEDICINE, published 2022).

Key:
[1] = target: human PD-L1 on CHO/PD-L1 cells (CS187108, Promega) (human, UniProt Q9NZQ7 19-290); assay: cell-based or functional assay
[2] = target: T1, human TGF-β1 (human, UniProt P01137 279-390); assay: ELISA, plate coated with human TGF-β1, anti-human Fc-HRP, OD 450 nm
T1 construct: Bought protein; also called Human TGF-β1 (8915LC, CST); human TGF-β1 (R&D, 240-B-010)
Procedure: a. […] Washing 3 times with 250 μl of 1×PBST, 250 μl of 5% milk PBS was added for blocking at 37° C. for 2 hours. c. […] Washing 3 times with 250 μl 1×PBST. e. 100 μl of Anti-human Fc antibody-HRP (1:4000) was added to each well and incubated for 40 minutes at 37° C. f. 100 μl of TMB was added into each well, incubated for 10 minutes at room temperature, and the reaction was stopped by adding 100 μl of 1 M H₂SO₄. g. The absorbance at 450 nm was measured on a microplate reader, and the data was analyzed by Graphpad Prism 5.

[3] = target: T1, human TGF-β1; assay: cell-based or functional assay

T1 sequence (P01137 279-390 limits assumed): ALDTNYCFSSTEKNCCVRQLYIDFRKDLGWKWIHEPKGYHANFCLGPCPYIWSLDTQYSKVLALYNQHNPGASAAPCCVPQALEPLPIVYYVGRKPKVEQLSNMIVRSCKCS
human PD-L1 on CHO/PD-L1 cells (CS187108, Promega), sequence (Q9NZQ7 19-290): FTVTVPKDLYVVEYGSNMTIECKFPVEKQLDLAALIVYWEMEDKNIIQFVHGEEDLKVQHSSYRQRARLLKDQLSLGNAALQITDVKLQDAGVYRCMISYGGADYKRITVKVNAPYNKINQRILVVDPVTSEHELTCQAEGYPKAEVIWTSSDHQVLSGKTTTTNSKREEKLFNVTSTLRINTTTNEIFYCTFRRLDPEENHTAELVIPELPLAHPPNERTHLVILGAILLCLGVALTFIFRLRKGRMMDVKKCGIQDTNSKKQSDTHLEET

EC50 (read off the curve), luminescence of the PD-1/PD-L1 blockade reporter assay [1]: ~0.3 nM | binding result [2]: no binding (tested: 1e6 pM (Log(pM) 6)) | TGFβ-induced pSMAD3 reporter activity (luciferase, HepG2 cells), IC50 [3]: > 500 nM
B1: PD-L1 antibody (antibody, human IgG4 S228P, kappa, F234A L235A, V domains shown)
VH: QVQLVQSGAEVKKPGASVKVSCKASGYTFTSYWMHWVRQAPGQGLEWMGRIGPNSGFTSYNEKFKNRVTMTRDTSTSTVYMELSSLRSEDTAVYYCARGGSSYDYFDYWGQGTTVTVSS
VL: DIVLTQSPASLAVSPGQRATITCRASESVSIHGTHLMHWYQQKPGQPPKLLIYAASNLESGVPARFSGSGSGTDFTLTINPVEAEDTANYYCQQSFEDPLTFGQGTKLEIKR
notes: Human IgG4 with S228P, F234A, L235A and the C-terminal K mutated to A; also called Ab; PD-L1 antibody IgG4 (AA) (S228P)
